The results in this text go back to patent US20160097044A1, “Antimicrobial Enzyme Fusions Reduce Resistance and Kill Intracellular Staphylococcus aureus” (The United States of America, as Represented by the …, priority 2014, published 2016).

For one assay, the system named is USA 600 (NRS 22). Briefly: Minimum Inhibitory Concentration (MIC) assay. It is filed as cell-based, S. aureus. The procedure: (§1) The Minimum Inhibitory Concentrations (MIC) of each protein for multiple S. aureus strains was determined as previously described (Jones et al. 1985. In: Manual of Clinical Microbiology, Eds. Balows et al. American Society of Microbiology, Washington D.C., pp. 972-977) with the following modifications. Enzymes were serially diluted two fold across a 96 well plate, such that after dilution, 50 μl of the enzyme solution in 300 mM NaCl, 50 mM NaH2PO4, 30% glycerol pH 7.5, remained in each well. To each well was added 50 μl of TSB and 100 μl of S. aureus Newman in TSB (diluted to 5×10^6 cells/ml). The plates were incubated 20 h at 37° C. and read with a 96 well plate reader. MIC determination values were reported as the median of ≧4 replicates (Table 1).

For another assay, the system named is USA 300 (NRS 384). Description: Minimum Inhibitory Concentration (MIC) assay. It is filed as cell-based, S. aureus. As for the experimental part:
as §1

A further assay has as its system USA 400 (NRS 123). Description: Minimum Inhibitory Concentration (MIC) assay. It is filed as cell-based, S. aureus. As for the experimental part:
as §1

The subject of a further assay is N315 (NRS 70). Description: Minimum Inhibitory Concentration (MIC) assay. The assay is classed as cell-based, S. aureus. As for the experimental part: as §1
In the next assay the test system is USA 100 (NRS 382). Briefly: Minimum Inhibitory Concentration (MIC) assay. The assay is classed as cell-based, S. aureus. As for the experimental part:
as §1

The test system of the next assay is S. epidermidis MP04. Briefly: Minimum Inhibitory Concentration (MIC) assay. The conditions noted are these: Mastitis isolate S. epidermidis MP04. The assay is classed as cell-based, Staphylococcus epidermidis.
Another assay concerns S. aureus strain Newman. Briefly: Resistance development, plate lysis repeated exposure method. The assay is classed as cell-based. The settings on record: not shown. As for the experimental part:
For the plate lysis assays, purified enzymes were serially diluted in saline lysis buffer (SLB; 150 mM NaCl 10 mM Tris buffer, pH 7.5) with 15% glycerol, to yield concentrations of 100, 10, 1, and 0.1 pmoles/10 μl. S. aureus Newman was cultivated in tryptic soy broth (TSB) to an OD600 nm=0.4-0.6. The bacterial cells were harvested and diluted to yield a suspension with an OD600 nm of 0.1. Tryptic soy agar (TSA) plates were flooded with 3 ml of the bacterial cell suspension. Excess culture was removed, and the plates were air dried at room temperature for ˜30 min in a laminar flow hood. 10 μl of each peptidoglycan hydrolase dilution was then spotted onto the air-dried lawn, allowed to air dry, and the culture plates incubated overnight at 37° C. The following day, plates were evaluated visually and photographed.
In the Plate lysis method, bacterial cells were scraped from a sub-lethal (not fully cleared) spot from a plate lysis assay (described above), and these ‘exposed’ cells were used to inoculate 5 ml of TSB and grown for 4-6 hours to generate a new culture and lawn for subsequent exposure. Bacteria were passaged in this assay for up to 10 consecutive days, at which time the S. aureus were tested in MIC assays. Plate lysis repeated exposure experiments were performed in duplicate.

In the next assay the test system is S. aureus strain ALR. Description: Rat nasal colonization model. It is filed as in vivo, Wistar rats. The conditions noted are these: for reduction of nasal bacterial load (in words): equimolar concentrations, intranasally twice a day on days 5, 6, 7. An excerpt: FIGS. 1a-1c depict peptidoglycan hydrolase construct schematics, resistance development and effectiveness in eradicating S. aureus carriage in a rat colonization model. FIG. 1a is a schematic of the peptidoglycan hydrolase constructs. Domains: CHAP endopeptidase (CHAP, red box); N-acetylmuramoyl-L-alanine amidase (AMID, green box); M23 endopeptidase (PEP, blue oval); CBDs (LysK SH3b, gold diamond; lysostaphin SH3b, gold diamond with dot); protein transduction domain (PTD, blue circle); hexahistidine purification tag (His6). Domains are not to scale. Specific peptidoglycan cut sites are illustrated in FIG. 3a. FIG. 1b depicts in vitro antimicrobial resistance development. Engineered triple fusions K-L and L-K suppress antimicrobial resistance development compared to LysK (K), lysostaphin (L), or a combination of equimolar concentrations of both (L+K). Changes in Minimum Inhibitory Concentrations (MIC) are depicted as a fold-change at the tenth round of sublethal exposure compared to the first exposure, with the average fold-change of 4 replicates in red. Error bars=SEM. First exposure MICs: Lysostaphin, 0.77 μg/ml (27 nM); LysK, 47 μg/ml (840 nM); Lysostaphin and LysK (L+K) in combination 0.2 μg/ml (7 nM and 3 nM, respectively); triple fusion K-L, 7 μg/ml (97 nM); triple fusion L-K, 7.8 μg/ml (107 nM). FIG. 1c depicts reduction in colonization in a rat nasal carriage model. Rats were inoculated with S. aureus strain ALR on Day 1. After 5 days, the rats were treated twice daily for 3 days with 20 μl of a 10 mg/ml solution of each enzyme. The rat noses were excised on day 10, homogenized, and quantitative cultures were performed. Each point represents the CFU recovered from an individual rat. Bars indicate the median CFU/nose recovered from treated rats. […] Data were compiled from five independent experiments. Lyso=commercially purchased lysostaphin (AMBI, Tarrytown, N.Y.). Statistical comparisons were made with the Mann-Whitney test. SEQ ID NOs of depicted peptidoglycan hydrolase constructs: Lysostaphin (SEQ ID NO:1); Lysostaphin-PTD1-4, 6-12 (SEQ ID NOs:9, 11, 13, 15, 17, 19, 21, 23, 25, 27, 29, respectively); LysK (SEQ ID NO:3); LysK-PTD1-11 (SEQ ID NOs: 31, 33, 35, 37, 39, 41, 43, 45, 47, 49, 51, respectively); LysK-Lysostaphin Fusion K-L (SEQ ID NO:5); K-L-PTD1-4, 6-11 (SEQ ID NOs:53, 55, 57, 59, 61, 63, 65, 67, 69, 71, respectively); Lysostaphin-LysK Fusion L-K (SEQ ID NO:7).
Reduction in nasal colonization was observed when rats were challenged on day 0 with 10^7 CFU S. aureus strain ALR and then treated twice per day on days 5, 6, and 7 with 10 μl of 2% mupirocin calcium ointment (Bactroban Nasal) or petrolatum/softisan placebo. Noses from rats were homogenized and cultured quantitatively on day 10. Each point represents the CFU recovered from an individual rat, and the data were compiled from two independent experiments. Data were analyzed by the Mann-Whitney test, and horizontal lines represent median values. Mupirocin reduced colonization ˜98% compared to the placebo control.
The rat nasal colonization model is an adaptation of the mouse nasal colonization model that we described previously (Schaffer et al. 2006. Infect. Immun. 74:2145-2153). All animal experiments were conducted in accordance with a protocol approved by the appropriate Institutional Animal Care and Use Committees. Wistar rats (5 to 6 wks of age) were obtained from Charles River Laboratories (Wilmington, Mass.) and given food and water ad libitum. The animals were housed two per cage in a modified barrier facility under viral antibody-free conditions. The rats were given drinking water containing streptomycin sulfate (0.5 g/liter; Sigma) 1 day prior to bacterial inoculation and for the course of the experiment. The drinking water and cages were changed three times per week. […]

With “K-L: both LysK lytic domains fused to the N-terminus of lysostaphin; SEQ ID NO:5, protein SEQ ID NO:6”, the “Minimum Inhibitory Conc. (median μg/ml)” value in the assay on USA 600 (NRS 22) turned out to be 7.0 µg/mL; with USA 300 (NRS 384), 11 µg/mL; in the assay with USA 400 (NRS 123), 7.0 µg/mL; in the assay on N315 (NRS 70), 7.0 µg/mL; with USA 100 (NRS 382), 14 µg/mL; with S. epidermidis MP04, 3.5 µg/mL. Also, the “increased resistance during 10 rounds of sub-lethal exposure in plate lysis assays” value (from here on “increased resistance during 10 rounds”) with S. aureus strain Newman was “no detectable increase in resistance”. Also, in the assay with S. aureus strain ALR, the “reduction of nasal bacterial load (in words)” value was “unable to significantly reduce the bacterial load”.

“L: 247 amino acid mature (secreted) lysostaphin, staphylolytic bacteriocin, C-terminal His6 tag; SEQ ID NO:1 [reference compound]”: the “Minimum Inhibitory Conc. (median μg/ml)” value in the assay on USA 600 (NRS 22) stood at 1.2 µg/mL; in the assay with USA 300 (NRS 384), 1.2 µg/mL; in the assay with USA 400 (NRS 123), 1.2 µg/mL; in the assay on N315 (NRS 70) it was 0.68 µg/mL; in the assay with USA 100 (NRS 382), 1.2 µg/mL; with S. epidermidis MP04 it was 6.2 µg/mL. The “increased resistance during 10 rounds” value in the assay with S. aureus strain Newman was found to be 8 fold.

B1: K: 495 amino-acid staphylococcal phage K endolysin LysK, C-terminal His6 tag; SEQ ID NO:3 (protein)
chain: MAKTQAEINKRLDAYAKGTVDSPYRVKKATSYDPSFGVMEAGAIDADGYYHAQCQDLITDYVLWLTDNKVRTWGNAKDQIKQSYGTGFKIHENKPSTVPKKGWIAVFTSGSYEQWGHIGIVYDGGNTSTFTILEQNWNGYANKKPTKRVDNYYGLTHFIEIPVKAGTTVKKETAKKSASKTPAPKKKATLKVSKNHINYTMDKRGKKPEGMVIHNDAGRSSGQQYENSLANAGYARYANGIAHYYGSEGYVWEAIDAKNQIAWHTGDGTGANSGNFRFAGIEVCQSMSASDAQFLKNEQAVFQFTAEKFKEWGLTPNRKTVRLHMEFVPTACPHRSMVLHTGFNPVTQGRPSQAIMNKLKDYFIKQIKNYMDKGTSSSTVVKDGKTSSASTPATRPVTGSWKKNQYGTWYKPENATFVNGNQPIVTRIGSPFLNAPVGGNLPAGATIVYDEVCIQAGHIWIGYNAYNGNRVYCPVRTCQGVPPNQIPGVAWGVFKLEHHHHHH
modifications: C-terminal His6 tag; Phage K
In the case of B1, the “Minimum Inhibitory Conc. (median μg/ml)” value with USA 600 (NRS 22) stood at 75 µg/mL; in the assay on USA 300 (NRS 384) it was 75 µg/mL; with USA 400 (NRS 123) it was 75 µg/mL; in the assay with N315 (NRS 70) it was 37 µg/mL; in the assay on USA 100 (NRS 382), 96 µg/mL; in the assay with S. epidermidis MP04, 8.4 µg/mL. For the same molecule, the “increased resistance during 10 rounds” value with S. aureus strain Newman was found to be 2 fold. Further, the “reduction of nasal bacterial load (in words)” value in the assay on S. aureus strain ALR was “unable to significantly reduce the bacterial load”.

B2: L-K: LysK lytic domains inserted between lysostaphin's M23 endopeptidase domain and SH3b cell wall binding domain; SEQ ID NO:7, protein SEQ ID NO:8 (protein)
chain: MAATHEHSAQWLNNYKKGYGYGPYPLGINGGMHYGVDFFMNIGTPVKAISSGKIVEAGWSNYGGGNQIGLIENDGVHRQWYMHLSKYNVKVGDYVKAGQIIGWSGSTGYSTAPHLHFQRMVNSFSNSTAQDPMPFLKSAGYGKAGGTVTPTPNTGLDAKTQAEINKRLDAYAKGTVDSPYRVKKATSYDPSFGVMEAGAIDADGYYHAQCQDLITDYVLWLTDNKVRTWGNAKDQIKQSYGTGFKIHENKPSTVPKKGWIAVFTSGSYEQWGHIGIVYDGGNTSTFTILEQNWNGYANKKPTKRVDNYYGLTHFIEIPVKAGTTVKKETAKKSASKTPAPKKKATLKVSKNHINYTMDKRGKKPEGMVIHNDAGRSSGQQYENSLANAGYARYANGIAHYYGSEGYVWEAIDAKNQIAWHTGDGTGANSGNFRFAGIEVCQSMSASDAQFLKNEQAVFQFTAEKFKEWGLTPNRKTVRLHMEFVPTACPHRSMVLHTGFNPVTQGRPSQAIMNKLKDYFIKQIKNYMDKGTSSSTVVKDGKTSSASLDTVTPTPNTGWKTNKYGTLYKSESASFTPNTDIITRTTGPFRSMPQSGVLKAGQTIHYDEVMKQDGHVWVGYTGNSGQRIYLPVRTWNKSTNTLGVLWGTIKLEHHHHHH
modifications: Staphylococcus simulans & Phage K
Take B2: the “Minimum Inhibitory Conc. (median μg/ml)” value is 6.8 µg/mL in the assay with USA 600 (NRS 22); 20 µg/mL with USA 300 (NRS 384); 16 µg/mL in the assay with USA 400 (NRS 123); 16 µg/mL with N315 (NRS 70); 20 µg/mL in the assay on USA 100 (NRS 382); 4.2 µg/mL in the assay on S. epidermidis MP04. In addition, the “increased resistance during 10 rounds” value in the assay with S. aureus strain Newman was “no detectable increase in resistance”. Besides, in the assay with S. aureus strain ALR (200 μg intranasally twice a day on days 5, 6, 7, noses cultured day 10), the “decrease in CFU/nose (nasal colonization) compared to rats treated with buffer” value is 98%. For the same molecule, in the assay with S. aureus strain ALR (rat nasal decolonization model), the “bacterial load reduction relative to either parental enzyme” value was 5-10 fold.
